Usually Kd stands for a measure of binding affinity in units of concentration. Higher therefore signals weaker binding.

We go through 1 substance from paper PMC5725915.

The assay addresses human factor Xa (human). Kind of assay: prothrombinase activity titration.

Sequence of human factor Xa (human) (P00742 whole entry): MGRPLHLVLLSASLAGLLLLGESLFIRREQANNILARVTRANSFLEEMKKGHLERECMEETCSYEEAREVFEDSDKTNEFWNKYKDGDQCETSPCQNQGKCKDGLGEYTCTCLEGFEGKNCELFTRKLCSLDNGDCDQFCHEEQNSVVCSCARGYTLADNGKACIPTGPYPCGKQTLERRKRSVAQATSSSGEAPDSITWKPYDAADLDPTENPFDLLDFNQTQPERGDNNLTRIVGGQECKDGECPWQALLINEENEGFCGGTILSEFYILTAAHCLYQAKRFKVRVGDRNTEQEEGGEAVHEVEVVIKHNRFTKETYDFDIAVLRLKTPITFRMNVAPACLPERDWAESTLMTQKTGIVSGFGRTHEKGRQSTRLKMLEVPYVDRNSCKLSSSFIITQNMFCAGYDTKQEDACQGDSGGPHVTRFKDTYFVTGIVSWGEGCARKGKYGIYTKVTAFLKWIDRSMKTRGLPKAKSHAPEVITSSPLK

Consider “wild-type recombinant human fV activated with thrombin (rhfVa^WT) (from UniProt P12259 29-737; P12259 1574-2224) (complex)”, for which the Kd turned out to be 0.48 nM.
